# Assay results: US20200170258A1
# Key:
# [1] = biological target: … SENSING 2 (FLS2) of soybean (soybean); assay: cell-based or functional assay
# [2] = biological target: FLS2 receptor of Arabidopsis thaliana (Arabidopsis thaliana) (UniProt Q9FL28); assay: cell-based or functional assay
# Chain of FLS2 receptor of Arabidopsis thaliana (Arabidopsis thaliana) (Q9FL28 24-1173): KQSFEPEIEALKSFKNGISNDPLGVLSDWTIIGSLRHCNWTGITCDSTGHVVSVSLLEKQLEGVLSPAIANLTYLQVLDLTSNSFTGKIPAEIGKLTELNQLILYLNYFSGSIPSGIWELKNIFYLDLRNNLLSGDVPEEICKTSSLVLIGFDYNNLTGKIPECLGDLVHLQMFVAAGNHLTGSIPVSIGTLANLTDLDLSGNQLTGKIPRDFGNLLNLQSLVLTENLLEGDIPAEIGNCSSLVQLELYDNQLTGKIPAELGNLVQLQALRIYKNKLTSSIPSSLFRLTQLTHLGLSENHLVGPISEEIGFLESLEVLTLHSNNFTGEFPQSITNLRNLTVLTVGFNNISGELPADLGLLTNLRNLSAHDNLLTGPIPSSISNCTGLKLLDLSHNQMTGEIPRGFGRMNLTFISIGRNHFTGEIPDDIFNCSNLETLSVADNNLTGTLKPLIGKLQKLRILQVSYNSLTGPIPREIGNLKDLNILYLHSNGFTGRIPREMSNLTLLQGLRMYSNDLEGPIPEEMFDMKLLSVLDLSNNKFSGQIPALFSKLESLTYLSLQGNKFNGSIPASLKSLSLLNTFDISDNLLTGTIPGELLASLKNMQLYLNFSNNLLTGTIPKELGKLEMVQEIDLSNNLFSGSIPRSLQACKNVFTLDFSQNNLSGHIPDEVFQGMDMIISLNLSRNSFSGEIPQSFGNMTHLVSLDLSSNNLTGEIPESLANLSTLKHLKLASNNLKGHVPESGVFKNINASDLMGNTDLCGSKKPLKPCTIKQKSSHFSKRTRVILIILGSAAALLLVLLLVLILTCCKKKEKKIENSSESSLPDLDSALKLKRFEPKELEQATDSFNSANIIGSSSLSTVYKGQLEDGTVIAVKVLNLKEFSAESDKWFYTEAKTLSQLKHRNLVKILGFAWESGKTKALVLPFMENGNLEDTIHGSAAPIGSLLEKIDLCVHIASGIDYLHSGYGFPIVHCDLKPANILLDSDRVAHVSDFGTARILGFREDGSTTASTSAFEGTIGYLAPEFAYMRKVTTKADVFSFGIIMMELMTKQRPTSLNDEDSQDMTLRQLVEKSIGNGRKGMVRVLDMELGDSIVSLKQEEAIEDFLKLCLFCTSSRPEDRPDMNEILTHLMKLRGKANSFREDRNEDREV
Binder,"% Activity (compared to unmodified Bt.4Q7Flg22), soybean ROS assay [1] [%]","ROS activity in Arabidopsis leaf tissue, Average RLU value, 100 nM [2] [RLU]","ROS activity in Arabidopsis leaf tissue, fold increase over mock treatment, 100 nM [2] [fold]"
Ac-DRLSSGKRINSASDDAAGLAIA-NH2 [Bt.4Q7Flg22 Mod-1],106,–,–
DRLSSGKRINSASDDAAGLAIA [Bt.4Q7Flg22],100,258000,3.1
